doi:10.1101/2022.04.07.487047 (bioRxiv, 2022)

T1: CydD, subunit of the heterodimeric ABC transporter CydDC (Escherichia coli, UniProt P29018 1-588)
T1 sequence: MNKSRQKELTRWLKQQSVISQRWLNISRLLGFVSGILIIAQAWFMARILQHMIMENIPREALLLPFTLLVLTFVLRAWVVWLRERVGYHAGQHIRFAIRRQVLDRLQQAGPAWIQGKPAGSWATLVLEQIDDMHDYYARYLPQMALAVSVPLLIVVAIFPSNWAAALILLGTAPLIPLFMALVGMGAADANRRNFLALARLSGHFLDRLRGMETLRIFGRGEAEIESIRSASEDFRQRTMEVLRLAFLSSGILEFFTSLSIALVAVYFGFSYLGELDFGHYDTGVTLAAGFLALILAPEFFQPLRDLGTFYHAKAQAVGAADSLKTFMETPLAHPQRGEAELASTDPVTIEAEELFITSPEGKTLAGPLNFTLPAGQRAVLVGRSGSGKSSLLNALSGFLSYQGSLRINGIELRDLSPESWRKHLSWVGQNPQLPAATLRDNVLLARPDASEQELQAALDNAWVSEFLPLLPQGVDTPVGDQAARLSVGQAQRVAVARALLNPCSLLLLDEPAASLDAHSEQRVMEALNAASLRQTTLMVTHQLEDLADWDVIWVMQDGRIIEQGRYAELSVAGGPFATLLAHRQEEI


What follows are binders tested against T1, CydD, subunit of the heterodimeric ABC … (assay: cryo-EM structure).

binding result | Binder
binds | CydC, subunit of the heterodimeric ABC transporter CydDC (wild type) (natural protein, Escherichia coli) MRALLPYLALYKRHKWMLSLGIVLAIVTLLASIGLLTLSGWFLSASAVAGVAGLYSFNYMLPAAGVRGAAITRTAGRYFERLVSHDATFRVLQHLRIYTFSKLLPLSPAGLARYRQGELLNRVVADVDTLDHLYLRVISPLVGAFVVIMVVTIGLSFLDFTLAFTLGGIMLLTLFLMPPLFYRAGKSTGQNLTHLRGQYRQQLTAWLQGQAELTIFGASDRYRTQLENTEIQWLEAQRRQSELTALSQAIMLLIGALAVILMLWMASGGVGGNAQPGALIALFVFCALAAFEALAPVTGAFQHLGQVIASAVRISDLTDQKPEVTFPDTQTRVADRVSLTLRDVQFTYPEQSQQALKGISLQVNAGEHIAILGRTGCGKSTLLQQLTRAWDPQQGEILLNDSPIASLNEAALRQTISVVPQRVHLFSATLRDNLLLASPGSSDEALSEILRRVGLEKLLEDAGLNSWLGEGGRQLSGGELRRLAIARALLHDAPLVLLDEPTEGLDATTESQILELLAEMMREKTVLMVTHRLRGLSRFQQIIVMDNGQIIEQGTHAELLARQGRYYQFKQGL
binds | CydC H85A (histidine to alanine exchange at position 85), subunit of CydDC^H85A (natural protein, Escherichia coli) MRALLPYLALYKRHKWMLSLGIVLAIVTLLASIGLLTLSGWFLSASAVAGVAGLYSFNYMLPAAGVRGAAITRTAGRYFERLVSADATFRVLQHLRIYTFSKLLPLSPAGLARYRQGELLNRVVADVDTLDHLYLRVISPLVGAFVVIMVVTIGLSFLDFTLAFTLGGIMLLTLFLMPPLFYRAGKSTGQNLTHLRGQYRQQLTAWLQGQAELTIFGASDRYRTQLENTEIQWLEAQRRQSELTALSQAIMLLIGALAVILMLWMASGGVGGNAQPGALIALFVFCALAAFEALAPVTGAFQHLGQVIASAVRISDLTDQKPEVTFPDTQTRVADRVSLTLRDVQFTYPEQSQQALKGISLQVNAGEHIAILGRTGCGKSTLLQQLTRAWDPQQGEILLNDSPIASLNEAALRQTISVVPQRVHLFSATLRDNLLLASPGSSDEALSEILRRVGLEKLLEDAGLNSWLGEGGRQLSGGELRRLAIARALLHDAPLVLLDEPTEGLDATTESQILELLAEMMREKTVLMVTHRLRGLSRFQQIIVMDNGQIIEQGTHAELLARQGRYYQFKQGL
binds | CydC E500Q (Walker B glutamate to glutamine mutant), subunit of CydDC^E500Q (natural protein, Escherichia coli) MRALLPYLALYKRHKWMLSLGIVLAIVTLLASIGLLTLSGWFLSASAVAGVAGLYSFNYMLPAAGVRGAAITRTAGRYFERLVSHDATFRVLQHLRIYTFSKLLPLSPAGLARYRQGELLNRVVADVDTLDHLYLRVISPLVGAFVVIMVVTIGLSFLDFTLAFTLGGIMLLTLFLMPPLFYRAGKSTGQNLTHLRGQYRQQLTAWLQGQAELTIFGASDRYRTQLENTEIQWLEAQRRQSELTALSQAIMLLIGALAVILMLWMASGGVGGNAQPGALIALFVFCALAAFEALAPVTGAFQHLGQVIASAVRISDLTDQKPEVTFPDTQTRVADRVSLTLRDVQFTYPEQSQQALKGISLQVNAGEHIAILGRTGCGKSTLLQQLTRAWDPQQGEILLNDSPIASLNEAALRQTISVVPQRVHLFSATLRDNLLLASPGSSDEALSEILRRVGLEKLLEDAGLNSWLGEGGRQLSGGELRRLAIARALLHDAPLVLLDQPTEGLDATTESQILELLAEMMREKTVLMVTHRLRGLSRFQQIIVMDNGQIIEQGTHAELLARQGRYYQFKQGL
